# Target: the molecule itself
# Experiment: fluorescence correlation spectroscopy (FCS); purified ubiquitin- and GFP-tagged proteins at 0.1 µM in 20 mM HepesKOH pH 7.6 with 150 mM NaCl, compared with 500 mM NaCl; diffusivity as read-out of self-association
protein,measurement,value
"His-ubiquitin- and GFP-tagged full-length Cavin1 (recombinant GFP-Cavin1) (natural protein, mouse, UniProt O54724 1-392, looked up, Cavin1, mouse, residues 1-392; also called purified recombinant GFP-Cavin1; source: E. coli Rosetta 2 (DE3), purified (TALON, Superose 6 SEC); not shown: His6-ubiquitin, N-terminal, kept; GFP, C-terminal, kept) MEDVTLHIVERPYSGFPDASSEGPEPTQGEARATEEPSGTGSDELIKSDQVNGVLVLSLLDKIIGAVDQIQLTQAQLEERQAEMEGAVQSIQGELSKLGKAHATTSNTVSKLLEKVRKVSVNVKTVRGSLERQAGQIKKLEVNEAELLRRRNFKVMIYQDEVKLPAKLSVSKSLKESEALPEKEGDELGEGERPEDDTAAIELSSDEAVEVEEVIEESRAERIKRSGLRRVDDFKKAFSKEKMEKTKVRTRENLEKTRLKTKENLEKTRHTLEKRMNKLGTRLVPVERREKLKTSRDKLRKSFTPDHVVYARSKTAVYKVPPFTFHVKKIREGEVEVLKATEMVEVGPEDDEVGAERGEATDLLRGSSPDVHTLLEITEESDAVLVDKSDSD",binding result,binds

# Source: publication PMC7875971, “Cavin1 intrinsically disordered domains are essential for fuzzy electrostatic interactions and caveola formation” (Nature Communications, 2021)
